According to PMC8708908:

Target: EcDsbB (Escherichia coli DsbB) (E. coli (endogenous in E. coli JCB817)) (UniProt P0A6M2)
Sequence of UniProt P0A6M2 (P0A6M2 whole entry): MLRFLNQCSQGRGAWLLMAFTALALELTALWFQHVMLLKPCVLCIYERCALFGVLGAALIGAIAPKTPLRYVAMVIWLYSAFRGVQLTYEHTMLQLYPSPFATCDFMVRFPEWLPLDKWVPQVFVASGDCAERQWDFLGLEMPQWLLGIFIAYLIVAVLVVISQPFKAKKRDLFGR

## CjDsbA2 made in E. coli with the E. coli pelB signal sequence (ss'pelB-cjdsbA2 in pMPM-A6, pUWM1523) (enzyme)
  redox state of CjDsbA2 (AMS labelling, Western blot) in E. coli JCB817 (ΔdsbA, with EcDsbB); in JCB818 (ΔdsbAΔdsbB) mostly in the reduced form (87%) (% oxidized form): 33
